From paper PMC3569449
pKd: −log10 of the molar value.

Experiments:
[1] = biological target: Human V-ATPase subunit H (non-tagged) (human) (UniProt Q9UI12); assay: SPR; Biacore T100; C1, H or a1NT amine-coupled to CM5; 20 mM HEPES-NaOH, 300 mM NaCl, 1 mM DTT, 0.05% P20, pH 7.5, 10°C; KD from steady-state Req against analyte concentration, 1:1 Langmuir isotherm
[2] = biological target: V-ATPase a NT (Saccharomyces cerevisiae) (UniProt P32563); assay: ITC; details: cited from earlier work
[3] = biological target: Human V-ATPase subunit C1 (human) (UniProt P21283); assay: SPR; Biacore T100; C1, H or a1NT amine-coupled to CM5; 20 mM HEPES-NaOH, 300 mM NaCl, 1 mM DTT, 0.05% P20, pH 7.5, 10°C; KD from steady-state Req against analyte concentration, 1:1 Langmuir isotherm
Human V-ATPase subunit C1 (human), sequence (P21283 whole entry, the tested form may be a part, canonical isoform): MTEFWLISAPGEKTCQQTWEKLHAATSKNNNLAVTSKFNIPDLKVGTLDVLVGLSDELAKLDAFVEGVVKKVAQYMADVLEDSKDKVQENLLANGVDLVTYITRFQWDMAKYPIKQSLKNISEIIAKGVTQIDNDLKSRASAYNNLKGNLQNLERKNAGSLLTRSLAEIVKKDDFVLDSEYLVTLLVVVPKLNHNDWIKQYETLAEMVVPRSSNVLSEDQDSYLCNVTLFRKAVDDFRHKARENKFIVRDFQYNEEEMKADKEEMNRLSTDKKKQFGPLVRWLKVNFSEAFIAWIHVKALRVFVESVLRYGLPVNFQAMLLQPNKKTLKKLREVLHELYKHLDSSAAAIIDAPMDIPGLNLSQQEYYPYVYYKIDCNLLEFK

[4] = biological target: Human V-ATPase subunit C1 (human) (UniProt P21283); assay: SPR; C1 immobilised on CM5; response at 10 µM analyte (E1G1, a1NT, or both together)
[5] = biological target: N-terminal cytoplasmic domain of the a1 isoform of subunit a of human V-ATPase (residues 1-353) (human) (UniProt Q93050); assay: SPR; Biacore T100; C1, H or a1NT amine-coupled to CM5; 20 mM HEPES-NaOH, 300 mM NaCl, 1 mM DTT, 0.05% P20, pH 7.5, 10°C; KD from steady-state Req against analyte concentration, 1:1 Langmuir isotherm
N-terminal cytoplasmic domain of the a1 isoform of subunit a of human V-ATPase (residues 1-353) (human), sequence (Q93050 1-353): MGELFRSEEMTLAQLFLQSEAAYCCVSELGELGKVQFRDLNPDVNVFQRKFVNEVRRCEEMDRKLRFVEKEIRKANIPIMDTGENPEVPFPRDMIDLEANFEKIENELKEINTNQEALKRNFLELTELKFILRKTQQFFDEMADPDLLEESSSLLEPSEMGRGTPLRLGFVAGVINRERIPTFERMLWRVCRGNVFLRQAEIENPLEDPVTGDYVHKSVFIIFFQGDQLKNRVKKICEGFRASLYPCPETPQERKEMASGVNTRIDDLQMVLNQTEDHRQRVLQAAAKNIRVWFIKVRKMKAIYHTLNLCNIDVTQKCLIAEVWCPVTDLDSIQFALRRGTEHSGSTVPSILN

V-ATPase a NT (Saccharomyces cerevisiae), sequence (P32563 104-372): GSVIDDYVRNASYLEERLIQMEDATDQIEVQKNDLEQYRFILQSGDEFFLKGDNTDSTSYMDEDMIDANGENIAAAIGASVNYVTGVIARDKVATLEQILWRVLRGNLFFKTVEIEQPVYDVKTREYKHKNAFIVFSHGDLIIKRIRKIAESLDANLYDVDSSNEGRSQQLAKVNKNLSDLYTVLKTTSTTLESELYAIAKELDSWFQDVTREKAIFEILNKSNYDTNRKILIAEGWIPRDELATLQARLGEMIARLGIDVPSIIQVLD
Human V-ATPase subunit H (non-tagged) (human), sequence (Q9UI12 whole entry): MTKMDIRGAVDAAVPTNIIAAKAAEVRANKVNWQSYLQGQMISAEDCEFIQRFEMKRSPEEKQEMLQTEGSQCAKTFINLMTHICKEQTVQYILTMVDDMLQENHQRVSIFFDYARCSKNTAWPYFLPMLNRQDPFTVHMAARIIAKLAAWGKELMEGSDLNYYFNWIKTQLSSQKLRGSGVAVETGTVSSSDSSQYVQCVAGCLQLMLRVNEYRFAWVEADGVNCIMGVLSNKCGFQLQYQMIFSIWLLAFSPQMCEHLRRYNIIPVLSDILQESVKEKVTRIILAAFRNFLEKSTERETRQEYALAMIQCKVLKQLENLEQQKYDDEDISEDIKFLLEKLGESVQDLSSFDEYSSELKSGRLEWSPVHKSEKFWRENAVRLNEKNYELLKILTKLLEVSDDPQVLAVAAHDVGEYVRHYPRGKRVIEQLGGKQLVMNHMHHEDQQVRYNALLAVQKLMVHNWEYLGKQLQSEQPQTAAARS
V-ATPase C foot, sequence (P31412 2-157): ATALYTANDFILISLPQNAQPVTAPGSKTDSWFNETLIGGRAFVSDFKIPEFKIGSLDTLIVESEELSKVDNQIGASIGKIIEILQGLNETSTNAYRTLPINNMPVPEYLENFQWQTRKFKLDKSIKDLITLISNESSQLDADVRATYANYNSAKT
V-ATPase C foot, sequence (P31412 278-392): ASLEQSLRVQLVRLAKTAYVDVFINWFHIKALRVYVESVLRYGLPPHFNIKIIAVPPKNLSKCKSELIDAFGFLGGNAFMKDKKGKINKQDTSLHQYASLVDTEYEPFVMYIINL
V-ATPase EG, sequence (P22203 2-233): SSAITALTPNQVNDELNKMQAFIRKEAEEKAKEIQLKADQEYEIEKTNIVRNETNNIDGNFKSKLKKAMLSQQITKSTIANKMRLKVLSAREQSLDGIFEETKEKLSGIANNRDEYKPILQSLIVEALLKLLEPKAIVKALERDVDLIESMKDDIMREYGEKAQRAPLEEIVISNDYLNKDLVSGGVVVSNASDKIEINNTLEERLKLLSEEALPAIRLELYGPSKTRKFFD
V-ATPase EG, sequence (P48836 2-114, further chain): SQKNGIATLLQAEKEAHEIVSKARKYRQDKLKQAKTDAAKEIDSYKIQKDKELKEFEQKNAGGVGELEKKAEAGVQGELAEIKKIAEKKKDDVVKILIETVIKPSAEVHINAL

In the case of “Human V-ATPase subunit C1 (from UniProt P21283 1-382) (natural protein)”, the pKd [1] was 5.85.
In the case of V-ATPase C foot (from UniProt P31412), the pKd [2] is given as 4.66.
For V-ATPase EG (from UniProt P22203), the pKd [2] is given as 4.48.
In the case of “N-terminal cytoplasmic domain of the a1 isoform of subunit a of human V-ATPase (residues 1-353) (from UniProt Q93050 1-353) (domain or fragment)”, the pKd [3] was 5.52, the pKd [1] was 6.44 and the response at 10 µM analyte [4] was 45 RU.
Work on “E1G1 heterodimer of human V-ATPase (subunits E1 and G1, co-expressed and co-purified) (from UniProt P36543 1-226; O75348 1-118) (complex)” yielded a pKd [5] of 6.68.
